Target: T1, GatD (glutamine amidotransferase-like protein GatD of Staphylococcus aureus) (Staphylococcus aureus, UniProt A0A0H2WZ38 1-243)
T1 construct: GatD, glutamine amidotransferase-like subunit of the GatD/MurT Lipid II amidation complex, Staphylococcus aureus; full length; source: E. coli BL21, co-expressed with MurT from pET21b (gatD/murT operon), purified (Ni-NTA, two rounds of SEC)
T1 sequence (looked up): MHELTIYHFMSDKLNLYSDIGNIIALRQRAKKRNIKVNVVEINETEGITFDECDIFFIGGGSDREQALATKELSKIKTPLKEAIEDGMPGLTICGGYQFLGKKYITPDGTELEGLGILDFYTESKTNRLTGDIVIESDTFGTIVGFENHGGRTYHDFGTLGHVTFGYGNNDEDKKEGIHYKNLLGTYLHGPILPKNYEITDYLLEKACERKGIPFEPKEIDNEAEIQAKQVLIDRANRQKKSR
Experiment: SAXS; two-fold dilution series 0.5 to 8 mg/mL of GatD/MurT in SEC II buffer, extrapolated to zero concentration; beamline P12, DESY
Conditions: both partners purified

B1: MurT (Mur ligase homolog MurT of Staphylococcus aureus) (enzyme, UniProt A0A0H2WZQ7 1-437, looked up)
chain: MRQWTAIHLAKLARKASRAVGKRGTDLPGQIARKVDTDILRKLAEQVDDIVFISGTNGKTTTSNLIGHTLKANNIQIIHNNEGANMAAGITSAFIMQSTPKTKIAVIEIDEGSIPRVLKEVTPSMMVFTNFFRDQMDRFGEIDIMVNNIAETISNKGIKLLLNADDPFVSRLKIASDTIVYYGMKAHAHEFEQSTMNESRYCPNCGRLLQYDYIHYNQIGHYHCQCGFKREQAKYEISSFDVAPFLYLNINDEKYDMKIAGDFNAYNALAAYTVLRELGLNEQTIKNGFETYTSDNGRMQYFKKERKEAMINLAKNPAGMNASLSVGEQLEGEKVYVISLNDNAADGRDTSWIYDADFEKLSKQQIEAIIVTGTRAEELQLRLKLAEVEVPIIVERDIYKATAKTMDYKGFTVAIPNYTSLAPMLEQLNRSFEGGQS
notes: MurT, Mur ligase homolog subunit of the GatD/MurT Lipid II amidation complex, Staphylococcus aureus; full length, untagged; MurT residues 1-35, 195-196 and 434-437 are not seen in the crystal structure
- stoichiometry N: 1

— paper PMC6113224, “Structural basis of cell wall peptidoglycan amidation by the GatD/MurT complex of Staphylococcus aureus” (Scientific Reports, 2018)
